Data: the supplement of paper PMC9112550, “Optimization of the antimicrobial peptide Bac7 by deep mutational scanning” (BMC Biology, 2022)
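Further: peptides expressed intracellularly from a pBAD plasmid library in pooled LB shake-flask culture, induced with 0.3% L-arabinose, DNA abundance read by NGS, three biological replicates, DESeq2 with apeglm shrinkage.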

Each sequence was assayed on Escherichia coli TOP10 (assay: shrunken log2 fold change of peptide-encoding DNA abundance (4.5 h post-induction vs induction); higher = less antimicrobial activity (less host growth inhibition)). Details: time post-induction: 4.5 h; library: site-saturation at positions 5, 18, 19, 20.
In the case of RRIRIRPPRLPRPRPRPLFTPRP, the “shrunken log2 fold change” value is reported as -0.374.
With RRIRMRPPRLPRPRPRPFMDPRP the “shrunken log2 fold change” value was -0.119.
RRIRSRPPRLPRPRPRPEAAPRP was tested, and the “shrunken log2 fold change” value was 0.873.
RRIRRRPPRLPRPRPRPMFHPRP was tested, and the “shrunken log2 fold change” value was -0.395.
In the case of RRIRDRPPRLPRPRPRPHSMPRP, the “shrunken log2 fold change” value is reported as -0.293.
RRIRERPPRLPRPRPRPCPFPRP was tested, and the “shrunken log2 fold change” value was -1.04.
RRIRCRPPRLPRPRPRPMPWPRP was tested, and the “shrunken log2 fold change” value was 0.0515.
In the case of RRIRNRPPRLPRPRPRPLGDPRP, the “shrunken log2 fold change” value is reported as 0.218.
With RRIRRRPPRLPRPRPRPYRDPRP the “shrunken log2 fold change” value was -0.111.
For RRIRARPPRLPRPRPRPEMMPRP, the “shrunken log2 fold change” value was 1.12.
RRIRCRPPRLPRPRPRPFTTPRP was tested, and the “shrunken log2 fold change” value was -0.286.
In the case of RRIRLRPPRLPRPRPRPFWHPRP, the “shrunken log2 fold change” value is reported as -0.0379.
In the case of RRIRIRPPRLPRPRPRPTYFPRP, the “shrunken log2 fold change” value is reported as -0.522.
RRIRTRPPRLPRPRPRPAQVPRP was tested, and the “shrunken log2 fold change” value was -0.112.
RRIRWRPPRLPRPRPRPMMNPRP was tested, and the “shrunken log2 fold change” value was -0.238.
With RRIRRRPPRLPRPRPRPIYEPRP the “shrunken log2 fold change” value was 0.0785.
With RRIRKRPPRLPRPRPRPKDAPRP the “shrunken log2 fold change” value was -0.0585.
RRIRERPPRLPRPRPRPLLYPRP was tested, and the “shrunken log2 fold change” value was -0.309.
With RRIRARPPRLPRPRPRPYGSPRP the “shrunken log2 fold change” value was -0.0423.
With RRIRTRPPRLPRPRPRPMDAPRP the “shrunken log2 fold change” value was 0.0575.
In the case of RRIRARPPRLPRPRPRPYFDPRP, the “shrunken log2 fold change” value is reported as -0.123.
RRIRIRPPRLPRPRPRPFHPPRP was tested, and the “shrunken log2 fold change” value was -0.111.
RRIRWRPPRLPRPRPRPPIIPRP was tested, and the “shrunken log2 fold change” value was -0.151.
RRIRSRPPRLPRPRPRPHYQPRP was tested, and the “shrunken log2 fold change” value was -0.357.
For RRIRRRPPRLPRPRPRPCGKPRP, the “shrunken log2 fold change” value was 0.254.
RRIRCRPPRLPRPRPRPMWNPRP was tested, and the “shrunken log2 fold change” value was -0.195.
In the case of RRIRMRPPRLPRPRPRPLACPRP, the “shrunken log2 fold change” value is reported as 0.244.
In the case of RRIRARPPRLPRPRPRPHQKPRP, the “shrunken log2 fold change” value is reported as -0.0267.
RRIRRRPPRLPRPRPRPTADPRP was tested, and the “shrunken log2 fold change” value was 0.808.
RRIRTRPPRLPRPRPRPASLPRP was tested, and the “shrunken log2 fold change” value was 0.105.
With RRIRRRPPRLPRPRPRPQGNPRP the “shrunken log2 fold change” value was 0.0869.
In the case of RRIRHRPPRLPRPRPRPHAQPRP, the “shrunken log2 fold change” value is reported as 0.0272.
RRIRNRPPRLPRPRPRPLLFPRP was tested, and the “shrunken log2 fold change” value was -0.188.
RRIRCRPPRLPRPRPRPQMHPRP was tested, and the “shrunken log2 fold change” value was -0.27.
In the case of RRIRERPPRLPRPRPRPHMSPRP, the “shrunken log2 fold change” value is reported as -0.27.
With RRIRMRPPRLPRPRPRPIYVPRP the “shrunken log2 fold change” value was -0.165.
In the case of RRIRMRPPRLPRPRPRPRDCPRP, the “shrunken log2 fold change” value is reported as 0.288.
RRIRVRPPRLPRPRPRPFLVPRP was tested, and the “shrunken log2 fold change” value was -0.527.
RRIRKRPPRLPRPRPRPHYHPRP was tested, and the “shrunken log2 fold change” value was -0.145.
RRIRPRPPRLPRPRPRPKCEPRP was tested, and the “shrunken log2 fold change” value was -0.187.
RRIRHRPPRLPRPRPRPSEQPRP was tested, and the “shrunken log2 fold change” value was -0.178.
In the case of RRIRQRPPRLPRPRPRPILKPRP, the “shrunken log2 fold change” value is reported as 0.14.
For RRIRLRPPRLPRPRPRPDMVPRP, the “shrunken log2 fold change” value was -0.175.
With RRIRMRPPRLPRPRPRPPLLPRP the “shrunken log2 fold change” value was 0.515.
In the case of RRIRQRPPRLPRPRPRPYCLPRP, the “shrunken log2 fold change” value is reported as -0.423.
With RRIRWRPPRLPRPRPRPKPIPRP the “shrunken log2 fold change” value was 0.477.
For RRIRYRPPRLPRPRPRPYCFPRP, the “shrunken log2 fold change” value was -1.
With RRIRCRPPRLPRPRPRPPHIPRP the “shrunken log2 fold change” value was 0.177.
With RRIRIRPPRLPRPRPRPKMTPRP the “shrunken log2 fold change” value was 0.123.
In the case of RRIRIRPPRLPRPRPRPKDRPRP, the “shrunken log2 fold change” value is reported as -0.409.
For RRIRARPPRLPRPRPRPSNVPRP, the “shrunken log2 fold change” value was -0.248.
RRIRLRPPRLPRPRPRPDIFPRP was tested, and the “shrunken log2 fold change” value was -0.282.
With RRIRMRPPRLPRPRPRPGTWPRP the “shrunken log2 fold change” value was 0.043.
In the case of RRIRLRPPRLPRPRPRPAQYPRP, the “shrunken log2 fold change” value is reported as -0.0702.
In the case of RRIRVRPPRLPRPRPRPNGHPRP, the “shrunken log2 fold change” value is reported as -0.0787.
In the case of RRIRNRPPRLPRPRPRPATPPRP, the “shrunken log2 fold change” value is reported as 0.537.
RRIRARPPRLPRPRPRPFNPPRP was tested, and the “shrunken log2 fold change” value was -0.432.
In the case of RRIRWRPPRLPRPRPRPIAGPRP, the “shrunken log2 fold change” value is reported as 0.0596.
For RRIRQRPPRLPRPRPRPIMWPRP, the “shrunken log2 fold change” value was 0.0394.
For RRIRKRPPRLPRPRPRPHGCPRP, the “shrunken log2 fold change” value was 0.352.
RRIRERPPRLPRPRPRPEMQPRP was tested, and the “shrunken log2 fold change” value was -0.0367.
In the case of RRIRARPPRLPRPRPRPHIVPRP, the “shrunken log2 fold change” value is reported as -0.000968.
With RRIRERPPRLPRPRPRPMFEPRP the “shrunken log2 fold change” value was 0.000206.
For RRIRPRPPRLPRPRPRPSFHPRP, the “shrunken log2 fold change” value was 0.626.
RRIRDRPPRLPRPRPRPAETPRP was tested, and the “shrunken log2 fold change” value was 0.0806.
For RRIRWRPPRLPRPRPRPWEMPRP, the “shrunken log2 fold change” value was -0.0156.
RRIRPRPPRLPRPRPRPSASPRP was tested, and the “shrunken log2 fold change” value was 2.33.
In the case of RRIRGRPPRLPRPRPRPRIIPRP, the “shrunken log2 fold change” value is reported as 0.0317.
In the case of RRIRCRPPRLPRPRPRPYFLPRP, the “shrunken log2 fold change” value is reported as -0.823.
In the case of RRIRDRPPRLPRPRPRPTHMPRP, the “shrunken log2 fold change” value is reported as 0.381.
In the case of RRIRGRPPRLPRPRPRPAHNPRP, the “shrunken log2 fold change” value is reported as 0.157.
For RRIRNRPPRLPRPRPRPMGMPRP, the “shrunken log2 fold change” value was -0.0761.
With RRIRIRPPRLPRPRPRPFPCPRP the “shrunken log2 fold change” value was -0.0282.
In the case of RRIRPRPPRLPRPRPRPECMPRP, the “shrunken log2 fold change” value is reported as 0.212.
RRIRWRPPRLPRPRPRPKQDPRP was tested, and the “shrunken log2 fold change” value was 0.00878.
